Measured values: a protein production outcome set (Wang et al. 2014)

Test: label from the status in PepcDB records

Sequence | protein production
MLLKILVKLIILDSSCSFLERFKLIIDCYTNKDIPDIDRQLPIWMLWRIWKSRNLSVYQHKSSTWREDFIKTVNDATEWALVWTIDSTTNIQTRQVQSRTHHSAWTRPKEDFVKCNFDCKFSKNNNVSQAGRSKGQHCSMSMEAELQALVMAMQHVWSKGYKKVIFEGDNLRLSSFLRKIKPTSKFTTGSEKIIIRKKGLAMLNSIGQEEKTTK | failed
MLLKQRINANVLVQDGDEPSEDPNELIKQVFALTQESNQLICRIHSTNAQAKLEDGKILLSLLSLRDSYAEQHKILIDAIANTHREPDRYSSREIKWKKVIPVSSLQKQADDISAKLRDLNVKIQAANWQIDLINLEHHHHHH | failed
MLLNEIPWTIPLTVRLSNGLTHTFASVYEALDFLENEWPLRKGERYERAVRTCRRALNRMTPAAVAREAFIAACLEAGMPLVMAPPAREPQGDTVKAAHTA | not failed
MLLPRMLEEVVLAVPARDYDRVVAGLAVEGIFHVDSPPQGVKGEVDRSYRALLTQASERSSRIRQYFDLAGVEPYRVSGVEIEVGGWGESWKRYLEKYSGVEKFYSGLLEEYSEAEARLKELLDIEARIAPVAHLDVDIARLYRSGAFDFAVYYGSYSEGLESRVGEIVSRVGGLAAVEASGGSVVVAVAVPKGALSKISPEILRLNLSIYTPPEGVPGSPREAMEYIRGEKARLGRRLVSIQEMASERLGELAEFYTVVTAFENIFKFLVSTLRRGETRIVRGFVDVRDSGRLRSIVDRMTRGSYVLLSLGVRRGGEAPIPSKVDLPQFLKPFSRVVELYGYPEPNEIVPTVFLAITLPLTFALMFPDAGQGLLVLLFSLFYLRRVSRDWAYVIAVMGGASVVSGLLAGEVFGPLVSKMLGLPELWYRLGLETPPYAMPTYAIDHGEEELVPVLVYRALNVSLFMGAFMLSFGTFLGVVNGVIKRDWVGLVESRLPRFLLFASITGPFLVYMDAGEAGSVLRQALLELGGDSIAAKLVLAGSVLGLAWMLLAGPIIYMLEGHSPLAGLANSFLEAYESLLMLVGNIPSFLRIMALALAHSSLMFVIYYLTVMIMQGGILADVVGALLYVGGNLAVAAMEGLLAFAHASRLHFYEWFSKFYSGTGVPYTPIKVEGVRIKIAGQTF | failed
MLLQPSRVRSGGRARWHAVQCAAAVTIGRDHPRHRYTRAMSSPLSCRLGCAACCIAPSISSPIPGMPNGKPAGVACVQLDAQLGCRLFGSPLRPAVCGNLRPSLEMCGTSRKQALSMLAALERATQP | failed
MLLSGWGKFVRWLLVLLSILVIIIGINLILDGVYGFGTFSTTQMYQVAKDPLIGVLIGILATALVQSSTTTTTLTVTAVGTGIVSVPVAIPIILGANIGTTITAMLVAFSYVGERREFKRAFTVAAMHVWFNVLVILVLFVVELLFHPFRTISGAIATEITLTTGGSLPTSGVMTKIFDPPTQLLGMNGLIGSIGNPSISAIVCLVVGTILILISVRAMSSQIRTITAATVTSIMDKVINPENSPKATILSNFWSFILGVLFTLMVTASSVTVASMQPVAASGVVKQKPLLGVILGANVGTTVTAMFATFAIVSDQGEFAIQAALIHLIVNFTGALLVLCIPQLANVIIHLAEKTANLTARSYSITLATIVTAYVLVPSAVLMIYFFI | failed
MLLYNKQKKNQNAKGNRILISVTVLGSAGPIRFVAYEDDLVASVIDTALKGYAREGRLPLLGSDFNDFLLYCPMVGPEALSTWDAIGSLGARNFMLCRKPEEKKVEESNGRSDSTINGARKGGSLKAWINKSFNLKVSSH | failed
MLMDGHTHTELCPHGSGEATEKMIQRAIQLGFQRYCITEHAPLPPAFRDQYEGTPAGYTEASLRENQVADYLALANGLKTKYAGQIEISVGFEVDFLPEHVAWTRDFLNTYGPRTQESILSVHFMRGLRQHFWCVDMSTDDFAAGFGQWLKTPQRVFEQYYQTVLASVQADLGPYAPQRIGHMSLVRKYQDYFGLTEPLDVHNLQLVDQTLALVKQQRRQLDLNLAGLYKPYCNDFYPGEQILQRAQKLDIPLVYGSDAHDIASVGRGYHLIKKLIEGLEHHHHHH | failed
MLMHATMAALAVFICFAGNYLTGQSMMERPLVVGLVTGILMGDMKTGVLMGASLEAIFLGNVNIGGVIAAEPVTATTLATTFAIISNVEQKAAMTLAVPIGMLAAFVVMFLKNVFMNIFAPSLDKAAREGNQKMVVTLHYGTWIIYYLIIASISFIGILAGSGPVNLFVESIPQNLMNGLSAAGGLLPAVGFAMLMKLLWDNKLAVFYILGFVLTAYLQLPAVAVAVIGTVICVVSAQRDVEFRDILKRKPAASSAVEGSAKEIEEEDFFA | failed
MLMQYRDLAKNIIKIYQKHGRDWTQLRGDFLHEKIWLDRFLGLLPMSAKVLDLGCGSGTPIAKYLIEQGCQLTGVDTSEVMLDMAQQNFPEQIWINADIRQFSTEQTFDGILAWDSFFHLDPENQRQMFAQFSTHAASGGVLMFTSGPSYGEAIGDMFGGPLYHASLDAAEYRTLLAQYGFETIKMIAEDPECTGHTVWLARKK | failed
MLNAKTSFALLMAVCLIATGVTGYLLGGINPELIQAWLKAAGIWAPVTYVAVYVVATILILPSTALNLTGGAIFGPWMGTFWTSVGAIIAAIAAFIFARTVGREIVAQRLAGRWQAIDAEVRQGAVFYMFAIRLMPILPYGLVNFAAGLTSISFKDYLIGTALGTVPGILPFVLLGSSGLKAIRTGEVLPLVGALALIGMLVGGSTWYRRRRSFPTRKKP | failed
MLNATAFCLAYAGFAALSLGMDRHYEDVFDRALPRRRRLALRSLEWLGLALSLWASAGAWGWNYGTVEWIGILSLAGLLLIWLLTFWPRAALGAGGACALAAPVLALL | failed
MLNFTVGPVMSSEEVRAIGAEQVPYFRTTEFSSTMLENEKFMLEYAKAPEGSKAVFMTCSSTGSMEAVVMNCFTKKDKVLVIDGGSFGHRFVQLCEIHEIPYVALKLEHGKKLTKEKLYEYDNQNFTGLLVNVDETSTAVLYDTMMIGEFCKKNNMFFVCDCVSAFLADPFNMNECGADVMITGSQKVLACPPGISVIVLAPRGVERVEKSKVRTMYFDLKDALKNQERGQTPFTPAVGILLQINERLKEIKKHGGADAEVARIASQAADFRAKIKDLPFELVSESPANGVTSVHPTTANAYDIFLKLKDEYGIWICPNGGEMKDTIFRVGHIGALTHEDNTTLVNAFKDLQKRNLL | not failed
MLNIEIYEEAMCCSTGVCGPEPDETLIKTNQINEYLKQNQIEVQRYNMNNNPNEFIQNKEVIRLIQEKGDEVLPITFIEGNIAKTGAYITQEEADEIITVNQMRNGGCCGGDGCC | not failed
MLNKTASYSEIEMSVVVPKDSKITNIEAVSKLAAPVKNDTSNITDLIEHIKSEKGISITPQKTDSYQDAYNRIKSGDSQAMVLNNAYVSLIELSTPDFKSQIKTIYTYKIKKKINRKNTNHKEGVFNIYISGIDTFGSISTVSRSDVNIIMTVNTNTHKVLLTTTPRDAYVKIPDGGGNQYDKLTHAGLYGVETSMKTLENLYDINLDYYARINFSSFLKLIDLLGGVTVYNDQAFTSKHGNFDFPVGQVTLNSEQALGFVRERYSLQGGDNDRGRNQEKVIAAIINKLASSQSVTKLNSITSQLQTSVQTNMTIDNINDLINNQLSTGQRFTVESQALTGHGSTGELPSYAMPGAQLYMMSIDQSSLSNAKSKIKNTMEELEHHHHHH | not failed
MLNKVLTHLDENIEKSLERLFSLLRFQSISTDFAYKDECRKAADWLVEDLKSIGFKASRRDTSGHPMVVGHHPGPSDDCLHVLFYGHYDVQPVDPLNLWEDDPFTPSLKEREGEKVICARGASDDKGQLMTFIEACRAFKKETGQLPVRVTVLFEGEEESGSSSLVPFLKANKDELKADCALVCDTSMWDADTPSVSVALRGILGEEIIITAANRDLHSGYFGGAAANPIRILTKVLAGLHDENNRVTLPGFYDGVEETPPHILQSWNALNCTAENFLGPIGLSLPAGEKGRSVLELVWARPTAEINGISGGYEGEGIKTVIASQASAKVSFRLVHKQDPEKIRQAFRDYVCSLIPADCSVVFKEHGASPAIQLPYDSPFIKATKDALSQEWNNPALLTVMGGSIPIVADFQSILDMETLLVGFALADDRIHSPNEKYNLKSFHKGQRSWARILATLAKTGG | not failed
MLNNKRLFTSESVTEGHPDKIADQVSDAILDAILKDDPNARVACETTVTTGMALIAGEISTTTYVDIPKVVRETIKEIGYTRAKYGYDYETMAILTAIDEQSPDIAQGVDKALEYRDKDSEEEIEATGAGDQGLMFGYATNETETYMPLAIYLSHQLAKRLSDVRKDGTLNYLRPDGKVQVTVEYDENDNPVRIDTIVVSTQHAEDVTLEQIQEDIKAHVIYPTVPENLINEQTKFYINPTGRFVIGGPQGDAGLTGRKIIVDTYGGYARHGGGCFSGKDPTKVDRSAAYAARYVAKNIVAAGLADQCEVQLAYAIGVAEPVSIAIDTFGTGKVSEGQLVEAVRKHFDLRPAGIIKMLDLKQPIYKQTAAYGHFGRTDVLFPWEKLDKVEELKDAVK | failed
MLNPFEKLQIPPKANQTIDTMLKRLPKIGGTTVRDREIRRLKEYYERIKKYYDFVEQFPKIDELHPFYLEATRIMTDINKLRICLSVTKKTSVISMKILKKYINQIRKSPENESNRIMRQAFGRVSSVLRKSSECIDRVIDVAKELKKIQGIDPTLPTIVVAGPPNVGKSTLVSKISTAKPEIASYPFTTKEVHVGHVILDDFRIQVIDTPGILDRPEAERNRIERKATNAIRNLNGIIVFMFDSSISSVLSVEGQIELFREVKLLKKIVIPVINKIDEKYEEYYKKIVDFLLSEGNEWHEISAEKGIGIDKLKEELFNLVKSSGTNEVSRD | failed
MLNQSNELNAWDRDHFFHPSTHMGTHARGESPTRIMAGGEGVTVWDNNGRKSIDAFAGLYCVNVGYGRQKIADAIATQAKNLAYYHAYVGHGTEASITLAKMIIDRAPKGMSRVYFGLSGSDANETNIKLIWYYNNVLGRPEKKKIISRWRGYHGSGVMTGSLTGLDLFHNAFDLPRAPVLHTEAPYYFRRTDRSMSEEQFSQHCADKLEEMILAEGPETIAAFIGEPILGTGGIVPPPAGYWEKIQAVLKKYDVLLVADEVVTGFGRLGTMFGSDHYGIKPDLITIAKGLTSAYAPLSGVIVADRVWQVLVQGSDKLGSLGHGWTYSAHPICVAAGVANLELIDEMDLVTNAGETGAYFRAELAKAVGGHKNVGEVRGDGMLAAVEFVADKDDRVFFDASQKIGPQVATALAASGVIGRAMPQGDILGFAPPLCLTREQADIVVSKTADAVKSVFANL | not failed
MLNTFMFPGQGSQAKGMGGALFDRFADLTAQADAVLGYSIRALCVDDPRDELGRTQFTQPALYVVNALTYYAKCEDSGETPDFLAGHSLGEFNALLAAGCFDFETGLKLVARRAELMSQARDGAMAAIVNASREQIERTLDEHGLVDTAIANDNTPSQLVISGPAHEIARAEALFQHDRVRYLRLNTSGAFHSKFMRPAQQAFAAHLQSFRLADPAIPVISNVSARPYENGRVSEGLAQQIASPVRWCESIRYLLALAAERGEAIEFTELGHGDVLTRLVHTIRRQTPAPAAAATSARARPTPPGEPERPAQQTAAAPRASDSASASLGAAERVAAWNRDYPVGTRVRSSLIHDDVLETRTPATVLFGHRAAVYMKGYNGYFDLAEVTPA | not failed
MLPDDVNQADVLADVTAAFYRYEKALTGNDVAVLDELFWHDEKTVRYGAGENLYGIEEIRAFRLARPSAGLDRALRNTVITTYGHDMAVASTEFTRTGSTKIGRQMQTWVKMPEGWRIVAAHVSLMSE | not failed
MLPKIIDLFSGCGGLALGFEKAGFDIVAGIELMPEACKTISYNLSWRYGKKETHICGDITEIEASVFKNSFGDEGCIVIGGPPCQAYSMAGRGKLRSLGEDRVNIKDARGYLYQDFLRFVFELEARAVVMENVPESTNFGGKNIPEIVCTELTKKGYKAYWTILNSADYGVPQVRERVFVVAIKGDEGKEIKLPNPTHRNEVDVLTQHQKRFEGYKQCQFFVEPNGTTDELKPWVTVGDAFSDLPEVFPTADSKYKLVSLNIEYPYKTEAQNEYQELMRTWYGKEGFGVSANAFRRNTRDFPIFERMQQGDNYIAATKIAEELFYEEAKLFGYEKDSEEYISLYNKMVPQYDKDKFENKWKRLDETKPSHTLVAHLAKDTYSHIHPIEPRGITVREAARLQSFPDDFFFDCSMGDAFKQIGNAVPPLLAYGVARTVLNTFEEE | failed
